Assay results from PMC3996851, “Characterization of 3-phosphoglycerate kinase from Corynebacterium glutamicum and its impact on amino acid production” (BMC Microbiology, 2014).

B1: 3-phosphoglycerate kinase (PGK) from Corynebacterium glutamicum, N-terminally His-tagged (enzyme, Corynebacterium glutamicum ATCC 13032, UniProt Q01655 1-405, looked up)
chain: MAVKTLKDLLDEGVDGRHVIVRSDFNVPLNDDREITDKGRIIASLPTLKALSEGGAKVIVMAHLGRPKGEVNEKYSLAPVAEALSDELGQYVALAADVVGEDAHERANGLTEGDILLLENVRFDPRETSKDEAERTAFAQELAALAADNGAFVSDGFGVVHRAQTSVYDIAKLLPHYAGGLVETEISVLEKIAESPEAPYVVVLGGSKVSDKIGVIEALAAKADKIIVGGGMCYTFLAAQGHNVQQSLLQEEMKATCTDLLARFGDKIVLPVDLVAASEFNKDAEKQIVDLDSIPEGWMSLDIGPESVKNFGEVLSTAKTIFWNGPMGVFEFAAFSEGTRGIAQAIIDATAGNDAFSVVGGGDSAASVRVLGLNEDGFSHISTGGGASLEYLEGKELPGVAILAQ
notes: 3-phosphoglycerate kinase (EC 2.7.2.3) of Corynebacterium glutamicum ATCC 13032, encoded by cg1790/pgk; amplified from genomic DNA with primers from start to stop; monomer 47 kDa by SDS-PAGE; The methods say an N-terminal tenfold His tag (pET16b); also called PGK^His; PGKHis; source: E. coli BL21 (DE3) (pET16b-pgk), purified (Ni-NTA, desalted on Sephadex G25); not shown: His10, N-terminal, kept

Legend:
[1] = target: T1, PGK^His (C. glutamicum 3-phosphoglycerate kinase) (Corynebacterium glutamicum, UniProt Q01655); test: coupled GAPDH/NADH assay, absorbance […] nm; assay type: biochemical
T1 construct: full length, N-terminal tenfold His tag (pET16b); expressed in E. coli BL21(DE3), Ni-NTA purified; 47 kDa monomer, 104 kDa homodimer

[2] = target: the molecule itself; test: SEC; gel filtration on a Bio-Prep SE-1000/17 column calibrated with BioRad standards; 100 mM TEA-Cl pH 7.4 with the optimal conditions for activity; two runs, 2 mg/ml PGK mixed with standards and 4 mg/ml PGK; single peak of about 104 kDa, fractions checked by enzyme activity (data not shown)
purified protein [3] = substrate: O=C(O)[C@H](O)COP(=O)(O)O; test: purified protein; assay type: biochemical, Corynebacterium glutamicum; conditions: gluconeogenic direction, co-substrate ATP, 2 mM Mg2+, 100 mM TEA-Cl pH 7.4, 30°C
purified protein [4] = substrate: Nc1ncnc2c1ncn2[C@@H]1O[C@H](COP(=O)(O)OP(=O)(O)OP(=O)(O)O)[C@@H](O)[C@H]1O; test: purified protein; assay type: biochemical, Corynebacterium glutamicum; conditions: gluconeogenic direction, co-substrate 3-PG, 2 mM Mg2+, 100 mM TEA-Cl pH 7.4, 30°C

Molecule	Ki [1]	stoichiometry N [2]	Km (purified protein [3])	Vmax (purified protein [3])	kcat (purified protein [3])	kcat/Km (purified protein [3])	Km (purified protein [4])	Vmax (purified protein [4])	kcat (purified protein [4])	kcat/Km (purified protein [4])
Nc1ncnc2c1ncn2[C@@H]1O[C@H](COP(=O)(O)OP(=O)(O)O)[C@@H](O)[C@H]1O [ADP]	100 µM									
B1		2	260 µM	220 U/mg	191 s⁻¹	733000 M⁻¹ s⁻¹	110 µM	150 U/mg	130 s⁻¹	592000 M⁻¹ s⁻¹
